From the DeepSol protein solubility set

Test: soluble on expression in E. coli; label from the status in PepcDB or PDB records

Sequence | soluble on expression in E. coli
MASIAVCPGSFDPVTYGHLDIIKRGAHIFEQVYVCVLNNSSKKPLFSVEERCELLREVTKDIPNITVETSQGLLIDYARRKNAKAILRGLRAVSDFEYEMQGTSVNRVLDESIETFFMMANNQYSFLSSSIVKEVARYDGSVSEFVPPEVELALQQKFRQGGSHHHHHH | soluble
VLRHISPAFAEDPLRVLRAARFMARLAPLGFSIAPETLAMMRQMAANGELNSLIPERIWKELSRSLTYTQPAAFLHTLRTVNALEVVLPELNALYGVPQHADYHPEIDTGLHQELVSDIAAKLAPGDMLIGFAALCHDLGKALTPRATWPHHPMHEQRGMAPTQQLSERLKVPRNYQQLALIACREHLNVHRLSKLHDNTVYELLQRCDAFRRPERIAQLAIVCEADYRGRYGHEDANYPQG | not soluble
MDIVSVALQRYSTKAFDPSKKLTAEEADKIKTLLQYSPSSTNSQPWHFIVASTEEGKARVAKSAAGNYTFNERKMLDASHVVVFCAKTAMDDAWLERVVDQEDADGRFATPEAKAANDKGRRFFADMHRVSLKDDHQWMAKQVYLNVGNFLLGVAAMGLDAVPIEGFDAEVLDAEFGLKEKGYTSLVVVPVGHHSVEDFNAGLPKSRLPLETTLTEV | not soluble
MSTGTPTTQKVVKTSIRLGPVNPPTPTRNTQGGHGFSAEFLEYRRRRQERHTVRLAKLPNETLIIGGANPFDARNVPEAIKKFRDLVDEKIGDKVHKKDANKSKIVFREEEEETQNGTITID | not soluble
MRGSHHHHHHGKQLTILGSTGSIGCSTLDVVRHNPEHFRVVALVAGKNVTRMVEQCLEFSPRYAVMDDEASAKLLKTMLQQQGSRTEVLSGQQAACDMAALEDVDQVMAAIVGAAGLLPTLAAIRAGKTILLANKESLVTCGRLFMDAVKQSKAQLLPVDSEHNAIFQSLPQPIQHNLGYADLEQNGVVSILLTGSGGPFRETPLRDLATMTPDQACRHPNWSMGRKISVDSATMMNKGLEYIEARWLFNASASQMEVLIHPQSVIHSMVRYQDGSVLAQLGEPDMRTPIAHTMAWPNRVNSGVKPLDFCKLSALTFAAPDYDRYPCLKLAMEAFEQGQAATTALNAANEITVAAFLAQQIRFTDIAALNLSVLEKMDMREPQCVDDVLSVDANAREVARKEVMRLASSACDLGTPGRPAAKLN | soluble
MPTYKLTYFNARGYAEAARILFHLADVPFEDFRMTHGDGTWEKLKDGAPFGQVPYLTVDGFDIPQSAAIIRYLANKFGYAGKTPEEQVWADAIVDQFKDFMGSFRERIMAHFAGKSQEEIAKITSEVVIPARDSYFKILNGLLEKSKSGFLVGDSITFADIVISENITTLEKNQLFVASEQPNLAALREKVYAIPAIRKWVEARPDTQY | not soluble
MSGEGMTAVSEPVQLTVPQMLAQLQGTDTSLRYYAAWWLGKFGLETATAAERQAIVSALIAALADEADRTELGGYPLRRNAARALGKLGDRQAVPALIECLRCEDFYVREAAAIALGQLGDPRAIAPLQSLLEGGVAMARLVPGRPHLVQPVEAVIESLGHLGATEAIALIEPFLAHEMPRVQFAAARALFQLTGDAVYGDRLLAALNSEDVQLRRTALLDLGAMGYLPAAEAILQAGVEASFKLIALHGILGQQLRQAAPAEQTLSLFQGLDQLLLEHHHHHH | soluble
MVPELMFDEPRPGRPPRHLADLDAAGRASAVAELGLPAFRAKQLAHQYYGRLIADPRQMTDLPAAVRDRIAGAMFPNLLTASADITCDAGQTRKTLWRAVDGTMFESVLMRYPRRNTVCISSQAGCGMACPFCATGQGGLTRNLSTAEILEQVRAGAAALRDDFGDRLSNVVFMGMGGAAGQLRQGVGRSSAHYRAAAVRFRDFGPRGDGVDGGSGPCYPQPCRRAARRDPGAVAARPRRRVARYTSSGQQPVEDQRSARCGPVLRQCDRATGVY | soluble
MAHHHHHHMPLPPVESGPAAMTRRNFLVEMNRLRVSQYMPTRKQLEEEDLRIATIRQEEKRAKHAEWAESRRKAADSYNAAGTNSGRPLPGSVSRSMRASGKGKPAENTYKLEKEEEAAKKREYNRLYEQEAKHQLAIRQATLKQMHDDEVRQMEALRKVNEEEDRKVAEAHAQAMEEERQYMERLKQSNKRELAARKAEQQAKEARDRQLQELVNENNRHRAEMDERRLKNVTRMLHLQNEQFHREAMMSKKASEAKHYEEVAATEERNRRLTKEEQEAAQRKKEQFRQDFEDCIARDKEFRRTHNYDEPMEVTRQRNELAAQSYRLVLEEERLQNAERRQQYRKDLMDQIMAKQTYRMTHLDEAGI | not soluble
MGLSCALTSGLSLRCFSNTPARLSCGAGILHCSKLCLSGFGDPAQGRLHNANHGAVRLHGTVTAFKHRRGYGFVLAEGVAASAPPLKHTYVALDTHAAAARNNGVPPAREEACNELHKSFFFTRSALMGGFYVTEGERVSFAVVAVPPGKGINRRVAGDSPSTRKDDGDHAALGGAETAEFLLGSPEGELEEDSSAATSDTQSQLHRIAVSLRYYDAKTGKETPISPLTLYGKIVEWDAAAGVGVIAELDTRRQYHEDAPRFPFSLESVDLALGTELRSGRYVRFCLEPATHAQGGGGEDTAAAVTPTSGAEAAADVDEDVELVAQRVIIDSSMERRKGVFGRPLVLADAAPGTMTSESRFSGVVREVKADHFGFIQDDLSGESIFFHLSNASSRVKAGDRVTYLLREVEYGKHTGKKACFDVLIDQTVTSRARDAASDCGASAGAGNAGGHHRKHAAERRSKTARDEDDLDFELL | not soluble
MKKRLLLSTFLASTLILTGCASDQSDNEDHHTSTGIHAPKSAKKLETKDIFNSDKKNSDISDAEMKQAIEKYLSVNSDILDNKYIMQHKLDKQIDSQTKVTEKQAETLSHLSNLAVKNDLHFKKFVTENNIPKEYKKPVELMMNYFKALNSTIANVDEDIEKLSYQPQNKINVVDVPTKYAGDVNKKQQDKIKDFLKSKGIKSDVIDK | not soluble
MSDSASNTENSIQIEIFPSRILSPETAQKLLVELSQVDGILRVMIQGNRLPEKVGYGPGTGEKVEHPLRKPIQIGGQVIELRVSVGRIRLEVLNAEVKENVRAVCEKMLPFSFEFREGHFLRRKPTVTDYAKLGPEADPRLLGMVDPKAKINQLVFILEHHHHHH | not soluble
MKLSKDTTALLKNFATINSGIMLKSGQFIMTRAVNGTTYAEANISDVIDFDVAIYDLNGFLGILSLVNDDAEISQSEDGNIKIADARSTIFWPAADPSTVVAPNKPIPFPVASAVTEIKAEDLQQLLRVSRGLQIDTIAITVKEGKIVINGFNKVEDSALTRVKYSLTLGDYDGENTFNFIINMANMKMQPGNYKLLLWAKGKQGAAKFEGEHANYVVALEADSTHDF | soluble
MKKLIIIPAYNESSNIVNTIRTIESDAPDFDYIIIDDCSTDNTLAICQKQGFNVISLPINLGIGGAVQTGYRYAQRCGYDVAVQVDGDGQHNPCYLEKMVEVLVQSSVNMVIGSRFITKEGFQSSFARRIGIKYFTWLIALLTGKKITDATSGLRLIDRSLIERFANHYPDDYPEPETVVDVLVSHFKVKEIPVVMNERQGGVSSISLTKSVYYMIKVTLAILVVRLKGNR | not soluble
MGSDKIHHHHHHMGKFDQITYFIAVVEEHGFAAAARKFGVSTAAVSRQIARLEAELKAELLVRTTRKLSLTDIGARYYQQCKKTLLELNEAEIAIANSRNEAVGILNVTSSRYFAMRFLLPYLPEFMELNPKLQIKIELAERFPDLAQENVDVLFGVSMEGPPELVRKRVSTTRYVLCASPDYLAKNGIPKTPSELGKHRYITHSMRNPDNLVTFKDNEQIYVEPVLWLNDSRALCECALLGMGIIKLHEYIVTEALQDGRLIEVLPEFQESSLSVYLYYQASRYLQPKIRRFIDFFTK | not soluble
LLIGFWDCVTCHGSPVDICTAKPRDIPMNPMCIYRSPEKKATEDEGSEQKIPEATNRRVWELSKANSRFATTFYQHLADSKNDNDNIFLSPLSISTAFAMTKLGACNDTLQQLMEVFKFDTISEKTSDQIHFFFAKLNCRLYRKANKASKLVSANRLFGDKSLTFNETYQDISELVYGAKLQPLDFKENAEQSRAAINKWVSNKTEGRITDVIPSEAINELTVLVLVNTIYFKGLWKSKFSPENTRKELFYKADGESCSASMMYQEGKFRYRRVAEGTQVLELPFKGDDITMVLILPKPEKSLAKVEKELTPEVLQEWLDELEEMMLVVHMPRFRIEDGFSLKEQLQDMGLVDLFSPAASALPGIVAEGRDDLYVSDAFHKAFLEVNEEGSEAAASTAVVIAGRSLNPNRVTFKANRPFLVFIREVPLNTIIFMGRVANPCVK | soluble
